Article PMC4738280, “Transthyretin participates in beta-amyloid transport from the brain to the liver- involvement of the low-density lipoprotein receptor-related protein 1?” (Scientific Reports, 2016)

Key:
Format in all cases: cell-based, human
[1] = test system: hCMEC/D3 cells; test: FAM-Aβ1-42 efflux from hCMEC/D3 cells, flow cytometry; conditions: hCMEC/D3, 10 min loading with FAM-Aβ1-42, then 20 min in FAM-Aβ1-42-free media, 37 °C, mean of N = 3
Procedure: For efflux studies, hCMEC/D3 cells were initially incubated with FAM-Aβ1-42 for 10 minutes and then the media was removed and replaced with FAM-Aβ1-42 -free media, and further incubated for 10 and 20 minutes, at 37 °C. Finally, cells were analyzed by flow cytometry, as described above.

[2] = test system: hCMEC/D3 cells; test: FAM-Aβ1-42 uptake by hCMEC/D3 cells, flow cytometry; conditions: hCMEC/D3, FAM-Aβ1-42 500 ng/mL (100 nM), 37 °C
Procedure: For quantification of Aβ1-42 uptake, hCMEC/D3 cells were plated into a 6-well plate coated with collagen type I and grown to confluence. Cells were washed with PBS and incubated for 5, 10, 15 and 30 minutes at 37 °C, with 500 ng/mL of FAM-Aβ1-42 (100 nM) in presence or absence of h rTTR (7.5 μg/mL, 136 nM). After incubation, cells were washed twice with PBS and enzymatically detached using trypsin (Gibco™), and then resuspended cells were centrifuged at 1000 rpm at RT for 5 minutes. The pellet was washed with PBS and cells recentrifuged as described above. Then the pellet was resuspended with PBS, and if necessary fixed with 4% Paraformaldehyde (PFA). Finally, cells were analyzed in FACS Canto II equipment (BD Biosciences) using Blue laser excitation of 488 nm. The flow cytometry data were analyzed using the Flowjo workstation.

[3] = test system: SAHep cells; test: FAM-Aβ1-42 internalization by SAHep cells, flow cytometry; conditions: FAM-Aβ1-42, 4.5–7.5 μg/mL of h rTTR, 3 hours, 37 °C, N = 3
Procedure: For the study with hepatocytes, SAHep cells were grown in 6-well plates coated with collagen type I and after 24 hours cells were incubated with FAM-Aβ1-42 in the presence or absence of h rTTR (136 nM) for 3 hours at 37 °C. For primary hepatocytes, after 48 hours of seeding, cells were incubated with FAM-Aβ1-42 (100 nM), with the advantage of no need for TTR addition. For hepatocytes derived from TTR−/− mice, we also examined the effect of h rTTR on FAM-Aβ1-42 internalization. FAM-Aβ1-42 inside SAHep cells and primary hepatocytes was measured by flow cytometry (FACS Canto II, BD Biosciences).

FAM-Aβ1-42: Aβ1-42 labeled with 5-(and-6)-Carboxyfluorescenin (FAM), purchased from AnaSpec
FAM-Aβ1-42 efflux, fluorescent cells remaining ([1]; absence of TTR): 67.6%
FAM-Aβ1-42 efflux, fluorescent cells remaining ([1]; presence of h rTTR): 45.5%
FAM-Aβ1-42 uptake, fluorescent cells ([2]; 5 min, absence and presence of h rTTR 7.5 μg/mL (136 nM), N = 3): 35–39%
FAM-Aβ1-42 uptake, fluorescent cells ([2]; 10 min, absence and presence of h rTTR 7.5 μg/mL, difference not significant, N = 3): over 57%
FAM-Aβ1-42 uptake, fluorescent cells ([2]; 15 min, absence of TTR, mean of N = 3): 61.7%
FAM-Aβ1-42 uptake, fluorescent cells ([2]; 15 min, presence of h rTTR 7.5 μg/mL (136 nM), mean of N = 3): about 73%
FAM-Aβ1-42 internalization with versus without TTR ([2]; 30 min, h rTTR 7.5 μg/mL versus none, N = 3): significantly higher in the presence of TTR
Uptake of Aβ1-42 peptide by SAHep cells, maximum [3]: 70%
